This assay has as its target T1, Epithelial cell adhesion molecule (EpCAM, CD326) (human, UniProt P16422 24-314).
T1 construct: whole, on cells; Endogenous EpCAM on carcinoma cell lines; also called EpCAM antigen
T1 sequence (looked up): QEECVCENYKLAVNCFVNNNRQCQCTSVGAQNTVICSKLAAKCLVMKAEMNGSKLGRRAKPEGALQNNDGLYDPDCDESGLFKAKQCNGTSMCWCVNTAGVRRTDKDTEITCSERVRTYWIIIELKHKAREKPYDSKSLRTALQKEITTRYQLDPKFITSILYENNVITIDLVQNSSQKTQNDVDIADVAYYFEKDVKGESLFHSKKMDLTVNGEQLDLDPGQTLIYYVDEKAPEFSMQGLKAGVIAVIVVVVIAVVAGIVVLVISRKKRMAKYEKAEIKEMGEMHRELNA
Nature of the assay: binding to EpCAM-expressing cells; method not stated.

B1: chimeric antibody huHEA125 (antibody, human IgG1, kappa)
heavy: not shown
light: DILLTQSPAILSVSPGERVSFSCRASQSIGISLHWYQQRPSDSPRLLIKYASESISGIPSRFSGSGSGTDFTLSINSVESEDIADYYCQQSNIWPTTFGAGTKLELKRTVAAPSVFIFPPSDEQLKSGTASVVCLLNNFYPREAKVQWKVDNALQSGNSQESVTEQDSKDSTYSLSSTLTLSKADYEKHKVYACEVTHQGLSSPVTKSFNRGEC
notes: Mouse HEA125 variable domains on human kappa and human IgG1 constant regions; also called unmodified huHEA125 antibody; non-conjugated huHEA125 antibody
In the case of B1, the Kd worked out at 2.2 nM.

The term Kd denotes the constant that tells how readily two partners part at equilibrium. High values mean a looser complex, low ones a tighter complex.

The values above are taken from US20120100161A1 (DEUTSCHES KREBSFORSCHUNGSZENTRUM, published 2012).
